Results on 1 protein are retold here after doi:10.1101/2021.02.04.429857 (bioRxiv, 2021).

This data set deals with the molecule itself. In words: cryo-EM structure.

B1: Streptomyces coelicolor bacterioferritin (natural protein, UniProt Q9S2N0 1-167, looked up)
chain: MQGDPEVIEFLNEQLTAELTAINQYFLHAKLQDHKGWTKLAKYTRAESFDEMRHAEVLTDRILLLDGLPNYQRLFHVRVGQSVTEMFQADREVELEAIDRLRRGIEVMRAKHDITSANVFEAILADEEHHIDYLETQLDLIEKLGESLYLSTVIEQTQPDPSGPGSL
With B1, the stoichiometry N (as a rule, the number of molecules, sites or subunits per partner or assembly) worked out at 24.
